Key:
[1] = target: FcγRIIIa(V158) (Sino Biological Inc, 10389-H08C1) (UniProt P08637); experiment: Binding ELISA on FcγRIIIa(V158); relative to MIL62 as 100%
[2] = target: FcγRIIIa(V158) (Sino Biological Inc, 10389-H08C1) (UniProt P08637); experiment: Binding ELISA: FcγRIIIa captured on anti-His coated plate; IgG pre-complexed with goat F(ab')2 anti-human-κ (1:2 w/w); HRP anti-human IgG F(ab')2 detection

FcγRIIIa(V158) (Sino Biological Inc, 10389-H08C1), sequence (P08637 17-208 F176V): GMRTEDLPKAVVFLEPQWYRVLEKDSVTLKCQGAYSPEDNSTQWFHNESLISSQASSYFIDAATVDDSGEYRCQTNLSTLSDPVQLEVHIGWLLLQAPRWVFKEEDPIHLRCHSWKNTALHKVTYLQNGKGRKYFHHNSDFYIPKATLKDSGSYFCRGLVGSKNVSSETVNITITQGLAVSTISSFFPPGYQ

## RITUXAN (rituximab) (antibody)
[1]
  Relative Bioactivity (%): 26.8%
[2]
  EC50: 0.194 µg/mL

From patent publication US20190177423A1
